This is an account of results in patent publication US20200231652A1.

For test [1], the target named is TGF-β1 (UniProt P01137).
Test [2] concerns the target TGF-β1 (UniProt P01137). The test can be described thus: cell-based or functional assay.
The next test addresses TGF-β2 (UniProt P61812). Nature of the test: cell-based or functional assay.
For a further test, the target named is TGF-β3 (UniProt P10600). The test can be described thus: cell-based or functional assay.
Chain of TGF-β3 (P10600 301-412 limits assumed): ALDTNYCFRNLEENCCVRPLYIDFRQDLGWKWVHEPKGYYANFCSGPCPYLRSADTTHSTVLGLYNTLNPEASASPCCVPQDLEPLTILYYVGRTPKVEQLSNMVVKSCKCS

Chain of TGF-β2 (P61812 303-414 limits assumed): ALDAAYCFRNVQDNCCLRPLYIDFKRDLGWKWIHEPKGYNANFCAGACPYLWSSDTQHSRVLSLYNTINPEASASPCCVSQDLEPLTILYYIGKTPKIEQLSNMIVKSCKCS
Chain of TGF-β1 (P01137 279-390 limits assumed): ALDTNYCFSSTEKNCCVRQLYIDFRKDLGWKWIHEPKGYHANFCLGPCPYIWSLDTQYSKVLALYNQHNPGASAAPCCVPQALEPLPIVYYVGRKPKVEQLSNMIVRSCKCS

B1: FC5-Fc-T22d35 (Fc fusion)
chain: EVQLQASGGGLVQAGGSLRLSCAASGFKITHYTMGWFRQAPGKEREFVSRITWGGDNTFYSNSVKGRFTISRDNAKNTVYLQMNSLKPEDTADYYCAAGSTSTATPLRVDYWGKGTQVTVSSASEPRGPTIKPCPPCKCPAPNLLGGPSVFIFPPKIKDVLMISLSPIVTCVVVDVSEDDPDVQISWFVNNVEVHTAQTQTHREDYNSTLRVVSALPIQHQDWMSGKEFKCKVNNKDLPAPIERTISKPKGSVRAPQVYVLPPPEEEMTKKQVTLTCMVTDFMPEDIYVEWTNNGKTELNYKNTEPVLDSDGSYFMYSKLRVEKKNWVERNSYSCSVVHEGLHNHHTTKSFSRTPGTGIPPHVQKSVNNDMIVTDNNGAVKFPQLCKFCDVRFSTCDNQKSCMSNCSITSICEKPQEVCVAVWRKNDENITLETVCHDPKLPYHDFILEDAASPKCIMKEKKKPGETFFMCSCSSDECNDNIIFSEEYNTSNPDIPPHVQKSVNNDMIVTDNNGAVKFPQLCKFCDVRFSTCDNQKSCMSNCSITSICEKPQEVCVAVWRKNDENITLETVCHDPKLPYHDFILEDAASPKCIMKEKKKPGETFFMCSCSSDECNDNIIFSEEYNTSNPD
In the test with TGF-β1 [1], B1 displayed a Fold Change Fc-T2m, A549 cell IL-11 release assay [table] of 10 fold; a Fold Change T22d35, A549 cell IL-11 release assay [table] of 101 fold; an IC50, A549 cell IL-11 release assay [table] of 5.73 pM. In the test with TGF-β1 [2], the Av IC50, TGF-β neutralization, Mv1Lu cell luciferase reporter assay worked out at 0.001 pM and the IC50, A549 cell IL-11 release assay worked out at 5 pM. In the test with TGF-β2, the Av IC50, TGF-β neutralization, Mv1Lu cell luciferase reporter assay was found to be 96200 pM. In the test with TGF-β3, this molecule showed an Av IC50, TGF-β neutralization, Mv1Lu cell luciferase reporter assay of 0.001 pM.

B2: FC5-Fc-T2m (Fc fusion)
chain: EVQLQASGGGLVQAGGSLRLSCAASGFKITHYTMGWFRQAPGKEREFVSRITWGGDNTFYSNSVKGRFTISRDNAKNTVYLQMNSLKPEDTADYYCAAGSTSTATPLRVDYWGKGTQVTVSSASEPRGPTIKPCPPCKCPAPNLLGGPSVFIFPPKIKDVLMISLSPIVTCVVVDVSEDDPDVQISWFVNNVEVHTAQTQTHREDYNSTLRVVSALPIQHQDWMSGKEFKCKVNNKDLPAPIERTISKPKGSVRAPQVYVLPPPEEEMTKKQVTLTCMVTDFMPEDIYVEWTNNGKTELNYKNTEPVLDSDGSYFMYSKLRVEKKNWVERNSYSCSVVHEGLHNHHTTKSFSRTPGTGIPPHVQKSVNNDMIVTDNNGAVKFPQLCKFCDVRFSTCDNQKSCMSNCSITSICEKPQEVCVAVWRKNDENITLETVCHDPKLPYHDFILEDAASPKCIMKEKKKPGETFFMCSCSSDECNDNIIFSEEYNTSNPD
For the molecule B2, the Av IC50, TGF-β neutralization, Mv1Lu cell luciferase reporter assay with TGF-β1 [2] turned out to be 0.017 pM; with TGF-β2, 433000 pM; with TGF-β3, 0.015 pM.

B3: hIgG2Fc-CCCC-T22d35 fusion (Fc fusion)
chain: ERKCCVECPPCPAPPVAGPSVFLFPPKPKDTLMISRTPEVTCVVVDVSHEDPEVQFNWYVDGVEVHNAKTKPREEQFNSTFRVVSVLTVVHQDWLNGKEYKCKVSNKGLPAPIEKTISKTKGQPREPQVYTLPPSREEMTKNQVSLTCLVKGFYPSDISVEWESNGQPENNYKTTPPMLDSDGSFFLYSKLTVDKSRWQQGNVFSCSVMHEALHNHYTQKSLSLSPGKIPPHVQKSVNNDMIVTDNNGAVKFPQLCKFCDVRFSTCDNQKSCMSNCSITSICEKPQEVCVAVWRKNDENITLETVCHDPKLPYHDFILEDAASPKCIMKEKKKPGETFFMCSCSSDECNDNIIFSEEYNTSNPDIPPHVQKSVNNDMIVTDNNGAVKFPQLCKFCDVRFSTCDNQKSCMSNCSITSICEKPQEVCVAVWRKNDENITLETVCHDPKLPYHDFILEDAASPKCIMKEKKKPGETFFMCSCSSDECNDNIIFSEEYNTSNPD
With B3, in the test with TGF-β1 [1], the Fold Change Fc-T2m, A549 cell IL-11 release assay [table] came out at 9 fold; the Fold Change T22d35, A549 cell IL-11 release assay [table] turned out to be 94 fold; the IC50, A549 cell IL-11 release assay [table] was 6.17 pM. In the test with TGF-β1 [2], this molecule came in with an Av IC50, TGF-β neutralization, Mv1Lu cell luciferase reporter assay of 1.45 pM and an IC50, A549 cell IL-11 release assay of 5 pM. Besides, the Av IC50, TGF-β neutralization, Mv1Lu cell luciferase reporter assay with TGF-β2 worked out at 108000 pM. Also, in the test with TGF-β3, the Av IC50, TGF-β neutralization, Mv1Lu cell luciferase reporter assay worked out at 0.026 pM.
